Molecular target: monkey BCMA on BCMA-CHO cells (cynomolgus monkey)
Assay: flow cytometry (MFI) on CHO cells expressing monkey BCMA; EC50 table in the figure; fit value for a flat control curve

Chain of monkey BCMA on BCMA-CHO cells (cynomolgus monkey) (chain, as listed by the source): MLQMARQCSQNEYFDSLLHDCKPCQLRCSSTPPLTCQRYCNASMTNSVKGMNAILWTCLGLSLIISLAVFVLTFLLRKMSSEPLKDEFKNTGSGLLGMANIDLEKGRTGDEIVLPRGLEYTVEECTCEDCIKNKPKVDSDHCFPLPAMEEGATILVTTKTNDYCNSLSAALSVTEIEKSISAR

EC50: 0.357 µg/mL
Substance: Irrelevant antibody

— US20240052048A1
